PMC6212638, “In silico identification and biochemical characterization of the human dicarboxylate clamp TPR protein interaction network” (FEBS Open Bio, 2018)
Ends that are not written are not given here. Peptide text beside a SMILES is read from it.

Legend:
AIP [1] = biological target: T1, AIP (Homo sapiens, UniProt O00170); assay: Dot-blot competition assay: HRP-conjugated peptide vs unlabeled peptide on nitrocellulose-immobilized AIP
T1 sequence (O00170 1-330): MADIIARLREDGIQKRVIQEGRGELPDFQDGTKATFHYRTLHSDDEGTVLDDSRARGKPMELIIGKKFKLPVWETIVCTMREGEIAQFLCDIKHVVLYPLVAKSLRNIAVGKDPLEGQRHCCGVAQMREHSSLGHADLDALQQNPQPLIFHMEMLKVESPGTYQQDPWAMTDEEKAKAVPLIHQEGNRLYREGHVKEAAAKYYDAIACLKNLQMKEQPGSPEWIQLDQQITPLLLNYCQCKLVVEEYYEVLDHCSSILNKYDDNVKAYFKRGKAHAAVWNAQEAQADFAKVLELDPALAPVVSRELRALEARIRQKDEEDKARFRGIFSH
Method: (§1) Full‐length cDNA clones for respective proteins were obtained from IMAGE consortium (SourceBioScience, Nottingham, UK) and PCR amplified with forward and reverse primers (Table 1) containing overhangs with appropriate restriction sites and cloned into pGEX6 vectors (GE Healthcare, Uppsala, Sweden). Inserts were sequence verified, and the plasmids were transformed into BL21 Escherichia coli strain. Glutathione‐S‐transferase (GST) fusion proteins were purified from 1 L overnight culture after 2 h of induction with 1 mM IPTG. Cells were pelleted, resuspended in 1× PBS and sonicated 3 × 20 s on ice. EDTA and protease inhibitor cocktail were added to prevent proteolysis. The suspension was centrifuged for 30 min at 50 000 g to remove cell debris, and supernatant was loaded onto a 1 mL GSTrap™ 4B column (GE Healthcare). After column washing with 30 mL PBS, GST fusion proteins were eluted with 2.5 mL 10 mM glutathione in PBS. Eluate was passed through a PD‐10 column (GE Healthcare) to remove free glutathione. To prepare GST‐tag‐free proteins, we performed overnight cleavage at 4 °C with PreScission protease (GE Healthcare) followed by passage through a GSTrap column to remove free GST protein. Average yield from 1 L starting culture was 1–5 mg of purified proteins. Protein‐containing fractions were collected, checked with SDS/PAGE and kept at −20 °C.
(§2) Peptides were dissolved in HEPES‐KOH buffer pH 7.2 at concentration of 1 mg·mL^−1 and incubated with equimolar amounts of activated horseradish peroxidase (HRP) (Lightning‐link® HRP labeling kit cat. 701‐004, from Innova Biosciences) for 5 min. Reaction was quenched with 0.1 M Tris/HCl, pH 7.5 for 10 min and the products were passed through PD‐10 columns (GE Healthcare). Dot‐blot experiments were performed using GST‐tag‐free proteins applied to the nitrocellulose membrane. After blocking of membrane with 3% BSA in TBS‐T buffer for 1 h and subsequent wash with TBS‐T, HRP‐conjugated peptides (1 × 500 times dilution) were applied and incubated for 1 h. After subsequent washing (3 × 10 min, TBS‐T), membrane was dried and signals were quantified using a digital Fujifilm LAS3000 imager and LAS3000 software. In competition experiments, increasing concentrations of unlabeled peptides were co‐incubated with peptide–HRP conjugates.
(§3) Each peptide was separately coupled to HRP.

FKBP51 [2] = biological target: T2, FKBP51 (Homo sapiens, UniProt Q13451); assay: Dot-blot competition assay: HRP-conjugated peptide vs unlabeled peptide on immobilized FKBP51
T2 sequence (Q13451 1-457): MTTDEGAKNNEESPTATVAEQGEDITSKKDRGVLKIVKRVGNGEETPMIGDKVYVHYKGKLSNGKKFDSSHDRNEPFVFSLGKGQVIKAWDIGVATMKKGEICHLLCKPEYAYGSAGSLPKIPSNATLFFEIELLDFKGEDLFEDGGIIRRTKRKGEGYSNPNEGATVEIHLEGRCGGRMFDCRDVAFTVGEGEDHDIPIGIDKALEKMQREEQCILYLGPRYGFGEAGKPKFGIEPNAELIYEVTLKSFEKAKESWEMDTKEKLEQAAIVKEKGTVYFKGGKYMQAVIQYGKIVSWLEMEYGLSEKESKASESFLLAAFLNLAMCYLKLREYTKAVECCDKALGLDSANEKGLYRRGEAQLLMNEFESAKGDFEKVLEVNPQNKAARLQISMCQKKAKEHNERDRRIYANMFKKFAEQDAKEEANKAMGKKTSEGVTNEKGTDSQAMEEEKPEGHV
Method: as §1, §2, §3

Tom70 = assay: Dot-blot assay of Tom70 with HRP-conjugated Hsp90 and Tom20 peptides in presence of unconjugated peptides; type: binding, human; settings: 20 μM unconjugated peptide
Method: In subsequent experiments, non‐fluorescent peptides were used. […] Cell impermeable Hsp90 peptide served as a treatment control.
Figure 6 In vitro and in situ analysis of interactions of 10‐amino‐acid peptides corresponding to C termini of Hsp90 and Tom20 with Tom70. (A) Dot‐blot assay of interactions between Tom70 and HRP‐conjugated 10‐amino‐acid peptides corresponding to C termini of Hsp90 and Tom20 in the presence of 20 μM of unconjugated peptides. (B) Fluorescence imaging of HEK293 cells in the presence of 20 μM of fluorescein‐labeled Hsp90, R9–Hsp90, Tom20 and R9–Tom20 peptides. (C) Inhibition of Tom20–Tom70 and Hsp90–Tom70 interactions with R9–Hsp90 and R9–Tom20 in HEK293 cells measured by PLA. n = 3. Graphs were created and SD values were calculated using PRISM, version 7.02. *P‐value < 0.05 compared to control; comparisons are based on one‐way ANOVA. (D) Inhibition of Tom20–Tom70 and Hsp90–Tom70 interactions with R9–Hsp90 and R9–Tom20 in HEK293 cells measured by mammalian two‐hybrid assay. n = 3. Graphs were created and SD values were calculated using PRISM, version 7.02. *P‐value < 0.05 compared to control; comparisons are based on one‐way ANOVA.

Tom70(94–608) = biological target: T3, Tom70(94–608) (UniProt O94826 94-608); assay: far-Western, overlay or dot blot; Tom70 on nitrocellulose, probed with HRP-conjugated Hsp90 or Tom20 peptide in the presence of 20 μM of unconjugated peptides; settings: both partners purified
T3 construct: mitochondrial import receptor Tom70, residues 94-608 as the primers are named; the reverse primer codes for ...KPPTL-stop; source: dot blots used GST-tag-free proteins
T3 sequence (looked up): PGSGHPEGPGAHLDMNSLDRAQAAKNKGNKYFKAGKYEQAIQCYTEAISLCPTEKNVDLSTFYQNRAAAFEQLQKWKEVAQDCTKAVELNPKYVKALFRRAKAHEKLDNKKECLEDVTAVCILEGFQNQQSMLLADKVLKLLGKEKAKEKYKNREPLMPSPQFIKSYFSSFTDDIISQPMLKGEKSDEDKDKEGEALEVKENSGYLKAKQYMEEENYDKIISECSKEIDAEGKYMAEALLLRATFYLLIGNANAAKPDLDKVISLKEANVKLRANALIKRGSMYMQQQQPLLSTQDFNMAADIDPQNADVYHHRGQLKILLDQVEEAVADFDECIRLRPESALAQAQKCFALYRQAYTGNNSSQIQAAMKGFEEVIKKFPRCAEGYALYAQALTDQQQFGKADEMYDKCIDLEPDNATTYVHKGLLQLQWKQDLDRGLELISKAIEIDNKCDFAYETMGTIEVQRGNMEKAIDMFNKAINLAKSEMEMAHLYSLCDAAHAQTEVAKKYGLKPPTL

AIP [3] = biological target: T4, AIP (human, UniProt O00170 1-330); assay: far-Western, overlay or dot blot; GST-tag-free FKBP51 or AIP on nitrocellulose, blocked with 3% BSA in TBS-T, probed 1 h with HRP-conjugated peptide, alone or with increasing concentrations of unlabeled peptide; luminescence quantified; IC50 estimated; n = 3; settings: both partners purified
T4 construct: GST-tag-free protein spotted on nitrocellulose; also called nitrocellulose-immobilized AIP; source: E. coli BL21, purified as GST fusion (GSTrap), GST removed with PreScission protease
T4 sequence (looked up): T1 sequence (O00170 1-330)

FKBP51 [4] = biological target: T5, FKBP51 (human, UniProt Q13451 1-457); assay: as above; settings: both partners purified
T5 construct: GST-tag-free protein spotted on nitrocellulose; also called immobilized FKBP51; source: E. coli BL21, purified as GST fusion (GSTrap), GST removed with PreScission protease
T5 sequence (looked up): T2 sequence (Q13451 1-457)

## CC(C)C[C@H](NC(=O)[C@H](CC(=O)O)NC(=O)[C@H](Cc1ccc(O)cc1)NC(=O)[C@H](CC(C)C)NC(=O)[C@H](CC(C)C)NC(=O)[C@H](CO)NC(=O)[C@H](CC(N)=O)NC(=O)[C@H](CCC(N)=O)NC(=O)[C@@H](N)Cc1ccccc1)C(=O)N[C@@H](CC(=O)O)C(=O)O [DNAAF2] (H-FQNSLLYDLD-OH)
AIP [1]
  IC50: 8.47 ± 0.43 µM
FKBP51 [2]
  IC50: 25.6 ± 1.54 µM

## CC[C@H](C)[C@H](NC(=O)[C@@H](NC(=O)[C@@H]1CCCN1C(=O)CNC(=O)[C@H](CO)NC(=O)CN)[C@@H](C)O)C(=O)N[C@@H](CCC(=O)O)C(=O)N[C@@H](CCC(=O)O)C(=O)N[C@H](C(=O)N[C@@H](CC(=O)O)C(=O)O)C(C)C [Hsp70.1]
AIP [1]
  IC50: 10.6 ± 1 µM
FKBP51 [2]
  IC50: 27.6 ± 2.85 µM

## CSCC[C@H](NC(=O)[C@H](CC(N)=O)NC(=O)[C@@H](NC(=O)[C@H](CO)NC(=O)[C@H](CC(N)=O)NC(=O)[C@H](CCCCN)NC(=O)[C@@H](N)CCC(=O)O)C(C)C)C(=O)N[C@@H](CC(=O)O)C(=O)N[C@@H](CC(C)C)C(=O)N[C@@H](CC(=O)O)C(=O)O [Hsp105] (H-EKNSVNMDLD-OH)
AIP [1]
  IC50: 8.64 ± 0.8 µM
FKBP51 [2]
  IC50: 42.8 ± 4.16 µM

## CC(C)C[C@H](NC(=O)[C@H](CO)NC(=O)[C@H](CCC(N)=O)NC(=O)[C@@H]1CCCN1C(=O)[C@H](CCC(=O)O)NC(=O)[C@H](C)N)C(=O)N[C@@H](CC(=O)O)C(=O)NCC(=O)N[C@H](C(=O)N[C@@H](CC(=O)O)C(=O)O)C(C)C [NADSYN1] (H-AEPQSLDGVD-OH)
AIP [1]
  IC50: 9.74 ± 0.72 µM
FKBP51 [2]
  IC50: 28.2 ± 1.96 µM

## CC(C)C[C@H](NC(=O)[C@H](CO)NC(=O)[C@H](CCC(N)=O)NC(=O)[C@H](C)N)C(=O)N[C@@H](C)C(=O)N[C@@H](CCC(=O)O)C(=O)N[C@@H](CC(=O)O)C(=O)N[C@@H](CC(=O)O)C(=O)N[C@H](C(=O)N[C@@H](CCC(=O)O)C(=O)O)C(C)C [Tom20] (H-AQSLAEDDVE-OH)
Tom70
  competition with HRP-conjugated Hsp90 peptide for Tom70 binding: unable to disrupt
AIP [1]
  IC50: 35.3 ± 3.2 µM
FKBP51 [2]
  IC50: 132 ± 12.6 µM

## CSCC[C@H](NC(=O)[C@H](CC(N)=O)NC(=O)[C@H](CO)NC(=O)[C@H](Cc1ccc(O)cc1)NC(=O)[C@@H](NC(=O)[C@@H]1CCCN1)[C@@H](C)O)C(=O)N[C@@H](CCC(=O)O)C(=O)N[C@@H](CCC(=O)O)C(=O)N[C@H](C(=O)N[C@@H](CC(=O)O)C(=O)O)C(C)C [Usp19] (H-PTYSNMEEVD-OH)
AIP [1]
  IC50: 18.8 ± 2.78 µM
FKBP51 [2]
  IC50: 19.7 ± 2.55 µM

## CSCC[C@H](NC(=O)[C@H](CCCCN)NC(=O)[C@H](CCC(=O)O)NC(=O)[C@H](CC(=O)O)NC(=O)[C@H](CC(=O)O)NC(=O)[C@@H](N)CO)C(=O)N1CCC[C@H]1C(=O)N[C@@H](CC(=O)O)C(=O)N[C@@H](CC(C)C)C(=O)N[C@@H](CCC(=O)O)C(=O)O [p23] (H-SDDEKMPDLE-OH)
AIP [1]
  IC50: 55 ± 4.51 µM
FKBP51 [2]
  IC50: 189 ± 12.9 µM

## AQSLAEDDVE (also: HRP-conjugated, the 10 C-terminal residues of Tom20) [HRP-conjugated Tom20 peptide]
Tom70(94–608)
  binding result: binds

B1: Hsp90β peptide (peptide)
peptide: EDASRMEEVD
notes: the 10 C-terminal residues of Hsp90β; also called Hsp90 peptide; Hsp90β-derived peptide; source: synthetic peptide (Peptide 2.0, Inc.), > 95% purity
Tom70(94–608)
  binding result: binds
AIP [3]
  IC50: 18 µM
FKBP51 [4]
  IC50: 16 µM

B2: Usp19 peptide (peptide)
peptide: PTYSNMEEVD
notes: source: synthetic peptide (Peptide 2.0, Inc.), > 95% purity
AIP [3]
  IC50: 9 µM
FKBP51 [4]
  IC50: 19 µM

B3: DNAAF2 peptide (peptide)
peptide: FQNSLLYDLD
notes: the 10 C-terminal residues of DNAAF2; source: synthetic peptide (Peptide 2.0, Inc.), > 95% purity
AIP [3]
  IC50: 8 µM
FKBP51 [4]
  IC50: 25 µM

B4: NADSYN1 peptide (peptide)
peptide: AEPQSLDGVD
notes: the 10 C-terminal residues of NADSYN1; source: synthetic peptide (Peptide 2.0, Inc.), > 95% purity
AIP [3]
  IC50: 18 µM
FKBP51 [4]
  IC50: 28 µM

B5: Hsp105 peptide (peptide)
peptide: EKNSVNMDLD
notes: the 10 C-terminal residues of Hsp105; source: synthetic peptide (Peptide 2.0, Inc.), > 95% purity
AIP [3]
  IC50: 6 µM
FKBP51 [4]
  IC50: 40 µM

B6: Tom20 peptide (peptide)
peptide: AQSLAEDDVE
notes: the 10 C-terminal residues of Tom20; also called Tom20 label-free peptide; unlabeled Tom20 peptide; source: synthetic peptide (Peptide 2.0, Inc.), > 95% purity
AIP [3]
  IC50: 62 µM
FKBP51 [4]
  IC50: 183 µM

B7: HRP-conjugated Hsp90β peptide (peptide)
peptide: EDASRMEEVD
modifications: also: HRP-conjugated
notes: the 10 C-terminal residues of Hsp90β; also called HRP–Hsp90; Hsp90 peptide conjugated to HRP
Tom70(94–608)
  binding result: binds

B8: p23 peptide (peptide)
peptide: SDDEKMPDLE
notes: the 10 C-terminal residues of p23 / PTGES3; also called p23 C-terminal peptide; source: synthetic peptide (Peptide 2.0, Inc.), > 95% purity
AIP [3]
  IC50: 47 µM
FKBP51 [4]
  IC50: 291 µM
